According to patent US20120316071A1 (published 2012):
Changes are numbered by the printed parent chain. Numbers in names are those of the source.

B1: Fab VH1-46_IGHD6-6*01_IGHJ1*01 & L6_IGKJ1*01 (Fab, V domains shown)
VH: QVQLVQSGAEVKKPGASVKVSCKASGYTFTSYYMHWVRQAPGQGLEWMGIINPSGGSTSYAQKFQGRVTMTRDTSTSTVYMELSSLRSEDTAVYYCAREEYSSSSAEYFQHWGQGTLVTVSS
VL: not shown
notes: Fab expressed in E. coli; VH was cloned into Plasmid A (heavy chain CH1 constant region, His6 and Flag tags) and VL into Plasmid C (kappa CL); also called parental; wildtype
B2: Fab VH1-46_IGHD6-6*01_IGHJ1*01 S102A/S103P/S104F/H111F I51V/N52L/S54T/G56H (APFF VLTH) & L6_IGKJ1*01 S28N/S30D/S31H S52L/A55S (NDH LS) (Fab, V domains shown)
VH: B1 VH with I51V, N52L, S54T, G56H, S102A, S103P, S104F, H111F
VL: EIVLTQSPATLSLSPGERATLSCRASQNVDHYLAWYQQKPGQAPRLLIYDALNRSTGIPARFSGSGSGTDFTLTISSLEPEDFAVYYCQQRSNWPPWTFGQGTKVEIKR
notes: Fab with CH1 (Plasmid A, His6 and Flag tags) and kappa CL (Plasmid C); also called H:APFF VLTH & L:NDH LS
B3: Fab VH1-46_IGHD6-6*01_IGHJ1*01 S102A/S103P/S104F/H111F (APFF) & L6_IGKJ1*01 (Fab, V domains shown)
VH: B1 VH with S102A, S103P, S104F, H111F
VL: not shown
notes: Fab with CH1 (Plasmid A, His6 and Flag tags) and kappa CL (Plasmid C); also called H:APFF & L:wt
B4: Fab VH1-46_IGHD6-6*01_IGHJ1*01 S102A/S103P/S104F/H111Y (APFY) & L6_IGKJ1*01 (Fab, V domains shown)
VH: B1 VH with S102A, S103P, S104F, H111Y
VL: not shown
notes: Fab with CH1 (Plasmid A, His6 and Flag tags) and kappa CL (Plasmid C)
B5: Fab VH1-46_IGHD6-6*01_IGHJ1*01 S102A/S103P/S104F/H111F G56H (APFF G56H) & L6_IGKJ1*01 (Fab, V domains shown)
VH: B1 VH with G56H, S102A, S103P, S104F, H111F
VL: not shown
notes: as for B4
B6: Fab VH1-46_IGHD6-6*01_IGHJ1*01 S102A/S103P/S104F (APF) & L6_IGKJ1*01 S31K (Fab, V domains shown)
VH: B1 VH with S102A, S103P, S104F
VL: B2 VL with N28S, D30S, H31K, L52S, S55A
notes: as for B4
B7: Fab VH1-46_IGHD6-6*01_IGHJ1*01 S104F & L6_IGKJ1*01 (Fab, V domains shown)
VH: B1 VH with S104F
VL: not shown
notes: as for B4
B8: Fab VH1-46_IGHD6-6*01_IGHJ1*01 S102A/S103P/S104F/H111F I51V/N52L/S54T/G56H (APFF VLTH) & L6_IGKJ1*01 S28N/S30D/S31H (NDH) (Fab, V domains shown)
VH: B1 VH with I51V, N52L, S54T, G56H, S102A, S103P, S104F, H111F
VL: B2 VL with L52S, S55A
notes: Fab with CH1 (Plasmid A, His6 and Flag tags) and kappa CL (Plasmid C); also called H:APFF VLTH & L:NDH
B9: Fab VH1-46_IGHD6-6*01_IGHJ1*01 S102A/S103P/S104F (APF) & L6_IGKJ1*01 (Fab, V domains shown)
VH: B1 VH with S102A, S103P, S104F
VL: not shown
notes: Fab with CH1 (Plasmid A, His6 and Flag tags) and kappa CL (Plasmid C); also called H:APF & L:wt; APF triple mutant
B10: Fab VH5-51_IGHD5-18*01>3_IGHJ4*01 G100K/G104T & V3-4_IGLJ1*01 (Fab, V domains shown)
VH: EVQLVQSGAEVKKPGESLKISCKGSGYSFTSYWIGWVRQMPGKGLEWMGIIYPGDSDTRYSPSFQGQVTISADKSISTAYLQWSSLKASDTAMYYCARRKYSYTYDYFDYWGQGTLVTVSS
VL: QTVVTQEPSFSVSPGGTVTLTCGLSSGSVSTSYYPSWYQQTPGQAPRTLIYSTNTRSSGVPDRFSGSILGNKAALTITGAQADDESDYYCVLYMGSGISYVFGTGTKVTVL
notes: Fab; expressed with CH1 (His and Flag tags) and lambda CL from the expression plasmids; also called H:KT & L:wt; KT double mutant
B11: Fab VH5-51_IGHD5-18*01>3_IGHJ4*01 G100K/G104T & V3-4_IGLJ1*01 V91G (Fab, V domains shown)
VH: B10 VH
VL: B10 VL with V91G
notes: Fab; expressed with CH1 (His and Flag tags) and lambda CL from the expression plasmids; also called H:KT & V91G
B12: Fab VH5-51_IGHD5-18*01>3_IGHJ4*01 G100K/G104T & V3-4_IGLJ1*01 S96G (Fab, V domains shown)
VH: B10 VH
VL: B10 VL with S96G
notes: Fab; expressed with CH1 (His and Flag tags) and lambda CL from the expression plasmids; also called H:KT & S96G
B13: Fab VH5-51_IGHD5-18*01>3_IGHJ4*01 G100K/G104T & V3-4_IGLJ1*01 M94S (Fab, V domains shown)
VH: B10 VH
VL: B10 VL with M94S
notes: Fab; expressed with CH1 (His and Flag tags) and lambda CL from the expression plasmids; also called H:KT & M94S
B14: Fab VH5-51_IGHD5-18*01>3_IGHJ4*01 G100K/G104T & V3-4_IGLJ1*01 M94G (Fab, V domains shown)
VH: B10 VH
VL: B10 VL with M94G
notes: Fab; expressed with CH1 (His and Flag tags) and lambda CL from the expression plasmids; also called H:KT & M94G
B15: Fab VH5-51_IGHD5-18*01>3_IGHJ4*01 G100K/G104T G24T/S28R/G35V & V3-4_IGLJ1*01 V91L/S96P T53L (Fab, V domains shown)
VH: B10 VH with G24T, S28R, G35V
VL: B10 VL with T53L, V91L, S96P
notes: Fab expressed in E. coli; heavy chain vector adds CH1 with His6 and Flag tags, light chain vector adds lambda CL; also called H:KT TRV & L:LP T53L
B16: Fab VH5-51_IGHD5-18*01>3_IGHJ4*01 G100K/G104T G24T/S28R/G35V & V3-4_IGLJ1*01 V91L/S96P T53I (Fab, V domains shown)
VH: B10 VH with G24T, S28R, G35V
VL: B10 VL with T53I, V91L, S96P
notes: Fab expressed in E. coli; heavy chain vector adds CH1 with His6 and Flag tags, light chain vector adds lambda CL; also called H:KT TRV & L:LP T53I
B17: Fab VH5-51_IGHD5-18*01>3_IGHJ4*01 G100K/G104T & V3-4_IGLJ1*01 S96W (Fab, V domains shown)
VH: B10 VH
VL: B10 VL with S96W
notes: Fab; expressed with CH1 (His and Flag tags) and lambda CL from the expression plasmids; also called H:KT & S96W
B18: Fab VH5-51_IGHD5-18*01>3_IGHJ4*01 G100K/G104T & V3-4_IGLJ1*01 V91H (Fab, V domains shown)
VH: B10 VH
VL: B10 VL with V91H
notes: Fab; expressed with CH1 (His and Flag tags) and lambda CL from the expression plasmids; also called H:KT & V91H

How the values were obtained:
[1] = biological target: T1, Recombinant Human DLL4 (delta-like protein 4) (human, UniProt Q9NR61 27-524); test: SPR, Fab on recombinant human DLL4
T1 construct: Bought recombinant human DLL4 (R&D Systems Cat#1506-D4/CF); also called rHuman DLL4; Delta-like ligand 4

[2] = biological target: T2, Recombinant Human DLL4 (delta-like protein 4) (human, UniProt Q9NR61 27-524); test: ECL (MSD) binding assay, immobilised DLL4, 10 nM Fab;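 also: fab binding read as electrochemiluminescence via a TAG-labelled detection antibody, 1 h incubations at 20 °C, antigen signal compared with each well's blank, ratio of at least 4 scored as binder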
T2 construct: Bought recombinant human DLL4 (R&D Systems Cat#1506-D4/CF); also called rHuman DLL4

[3] = biological target: T2, Recombinant Human DLL4 (delta-like …); test: ELISA, DLL4-coated plate, 100 nM Fab
[4] = biological target: T3, Recombinant Human DLL4 (delta-like protein 4) (human, UniProt Q9NR61 27-524); test: ELISA, DLL4 coated on plate, Fab at 100 nM
T3 construct: also called rHuman DLL4; Delta-like 4

Row | Binder | Kd [1] [nM] | koff [1] [s⁻¹] | kon [1] [M⁻¹ s⁻¹] | ECL Signal [10 nM Fab] [2] | ELISA Signal [100 nM Fab] [3] | ELISA Signal-blank (100 nM Fab) [4]
1 | B1 | 730 | 0.101 | 163000 |  |  | 
2 | B2 | 1.7 | 0.00109 | 684000 |  |  | 
3 | B3 | 70.6 | 0.03 | 425000 |  |  | 
4 | B4 | 93.1 | 0.0317 | 340000 |  |  | 
5 | B5 | 32.7 | 0.0101 | 351000 |  |  | 
6 | B6 | 112 | 0.0392 | 350000 |  |  | 
7 | B7 | 380 | 0.19 | 500000 |  |  | 
8 | B8 | 2.7 | 0.00113 | 430000 |  |  | 
9 | B9 | 122 | 0.0492 | 405000 |  |  | 
10 | B10 |  |  |  | 42900 | 0.01 | 
11 | B11 |  |  |  | 45300 | 0.01 | 
12 | B12 |  |  |  | 40400 | 0.01 | 
13 | B13 |  |  |  | 49600 | 0.02 | 
14 | B14 |  |  |  | 20300 | 0.01 | 
15 | B15 |  |  |  |  |  | 0.18
16 | B16 |  |  |  |  |  | 0.3
17 | B17 |  |  |  | 52300 | 0.02 | 
18 | B18 |  |  |  | 27100 | 0.01 | 
